Substrate in this series: COCCOCn1ccc(NC(=O)c2cc(Oc3ccc(S(C)(=O)=O)cc3)cc(-c3ncccc3C)c2)n1
The series can be described thus: Activity of recombinant human pancreatic glucokinase assessed as glucose half-maximal activity.

B1: Hexokinase-4 (Homo sapiens), P35557 (protein)
chain: MLDDRARMEAAKKEKVEQILAEFQLQEEDLKKVMRRMQKEMDRGLRLETHEEASVKMLPTYVRSTPEGSEVGDFLSLDLGGTNFRVMLVKVGEGEEGQWSVKTKHQMYSIPEDAMTGTAEMLFDYISECISDFLDKHQMKHKKLPLGFTFSFPVRHEDIDKGILLNWTKGFKASGAEGNNVVGLLRDAIKRRGDFEMDVVAMVNDTVATMISCYYEDHQCEVGMIVGTGCNACYMEEMQNVELVEGDEGRMCVNTEWGAFGDSGELDEFLLEYDRLVDESSANPGQQLYEKLIGGKYMGELVRLVLLRLVDENLLFHGEASEQLRTRGAFETRFVSQVESDTGDRKQIYNILSTLGLRPSTTDCDIVRRACESVSTRAAHMCSAGLAGVINRMRESRSEDVMRITVGVDGSVYKLHPSFKERFHASVRRLTPSCEITFIESEEGSGRGAALVSAVACKKACMLGQ
For B1, the Vmax was 150%.

Source of the values: ChEMBL document CHEMBL3232870, “Discovery of 3-(4-methanesulfonylphenoxy)-N-[1-(2-methoxy-ethoxymethyl)-1H-pyrazol-3-yl]-5-(3-methylpyridin-2-yl)-benzamide as a novel glucokinase activator (GKA) for the treatment of type 2 diabetes mellitus” (Bioorg Med Chem, 2014).
